The values that follow come from patent US20030120051A1 (SUGEN, published 2003).

Assay [1] deals with T1, rat contactin (clone F8; p140 of GH3 cells) (rat, UniProt Q63198 21-1001, GPI-anchored).
T1 construct: whole, on cells; On transfected COS7 cells, on GH3 cells, in solubilized GH3 membranes or in rat brain membranes, as the entry says; also called rat homologue of contactin; F3/F11
T1 sequence (looked up): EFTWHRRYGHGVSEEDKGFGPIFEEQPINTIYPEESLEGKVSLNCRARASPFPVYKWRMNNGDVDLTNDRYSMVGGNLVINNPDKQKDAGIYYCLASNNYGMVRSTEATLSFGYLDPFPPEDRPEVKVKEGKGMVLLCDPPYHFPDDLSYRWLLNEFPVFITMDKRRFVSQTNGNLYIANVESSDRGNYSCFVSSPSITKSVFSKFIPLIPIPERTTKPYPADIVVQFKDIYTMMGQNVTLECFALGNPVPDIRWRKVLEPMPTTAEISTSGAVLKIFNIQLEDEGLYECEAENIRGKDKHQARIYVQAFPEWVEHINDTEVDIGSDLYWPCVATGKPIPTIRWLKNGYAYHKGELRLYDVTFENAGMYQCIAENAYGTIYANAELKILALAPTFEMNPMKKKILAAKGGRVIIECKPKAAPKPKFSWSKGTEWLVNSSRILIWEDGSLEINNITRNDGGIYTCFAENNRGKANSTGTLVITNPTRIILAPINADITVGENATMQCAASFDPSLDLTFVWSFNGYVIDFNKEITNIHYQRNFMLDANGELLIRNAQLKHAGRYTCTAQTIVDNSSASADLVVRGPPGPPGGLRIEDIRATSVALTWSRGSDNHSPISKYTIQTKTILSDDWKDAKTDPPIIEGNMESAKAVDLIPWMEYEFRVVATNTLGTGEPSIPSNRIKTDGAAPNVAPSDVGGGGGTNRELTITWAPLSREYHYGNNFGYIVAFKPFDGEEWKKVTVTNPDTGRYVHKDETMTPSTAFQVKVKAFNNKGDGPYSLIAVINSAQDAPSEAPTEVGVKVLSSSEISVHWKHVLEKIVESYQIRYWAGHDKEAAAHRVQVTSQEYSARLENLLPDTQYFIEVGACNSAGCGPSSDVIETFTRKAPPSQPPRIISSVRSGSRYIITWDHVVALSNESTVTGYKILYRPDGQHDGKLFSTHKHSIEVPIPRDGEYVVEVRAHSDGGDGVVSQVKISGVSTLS
In words: cross-linking (DTSSP) on GH3 cells, protein A precipitation, SDS-PAGE. How it is done:
(§1) Cells were incubated for four hours with medium containing, the different Fc-fusion proteins. Following three washes with cold PBS/Ca (1 mM CaCl₂ in PBS), the cells were incubated for additional 30 minutes with PBS/Ca containing 1 mM DTSSP (3,3′-Dithiobis[sulfosuccinimidyl--propionate], Pierce, Rockford, Ill.). Free cross-linker was removed by additional PBS wash followed by quenching with 100 mM glycine in TBS for 10 minutes at 4° C. Cell lysates were made in SBN lysis buffer (Peles et al., 1991, EMBO J., 10:2077-2086), and Sepharose-protein A was added to the cleared lysates. Following two hours incubation at 4° C., the beads were washed three times with HNTG buffer (Peles et al., 1991, EMBO J., 10:2077-2086), and the bound proteins were eluted by adding SDS PAGE sample buffer containing 5% β-mercaptoethanol and further incubation for 10 minutes at 95° C.
(§2) To characterize ligands for RPTPβ, a reversible cross-linker ([…]) was used, and proteins were sought that specifically bound to βC-Fc. Two of the cell lines that bound βC-Fc (IMR32 and GH3), as well as COS7 cells as a control, were allowed to react with the fusion proteins containing the FNIII or the CAH domains followed by cross-linking and precipitation of the complexes. […] No reactivity was detected in control cells or in cells incubated with βF-Fc. […]

The target in assay [2] is T2, human contactin of IMR-32 neuroblastoma cells (140 kDa protein) (human, UniProt Q12860 21-993, GPI-anchored).
T2 construct: whole, on cells; also called p140
T2 sequence (looked up): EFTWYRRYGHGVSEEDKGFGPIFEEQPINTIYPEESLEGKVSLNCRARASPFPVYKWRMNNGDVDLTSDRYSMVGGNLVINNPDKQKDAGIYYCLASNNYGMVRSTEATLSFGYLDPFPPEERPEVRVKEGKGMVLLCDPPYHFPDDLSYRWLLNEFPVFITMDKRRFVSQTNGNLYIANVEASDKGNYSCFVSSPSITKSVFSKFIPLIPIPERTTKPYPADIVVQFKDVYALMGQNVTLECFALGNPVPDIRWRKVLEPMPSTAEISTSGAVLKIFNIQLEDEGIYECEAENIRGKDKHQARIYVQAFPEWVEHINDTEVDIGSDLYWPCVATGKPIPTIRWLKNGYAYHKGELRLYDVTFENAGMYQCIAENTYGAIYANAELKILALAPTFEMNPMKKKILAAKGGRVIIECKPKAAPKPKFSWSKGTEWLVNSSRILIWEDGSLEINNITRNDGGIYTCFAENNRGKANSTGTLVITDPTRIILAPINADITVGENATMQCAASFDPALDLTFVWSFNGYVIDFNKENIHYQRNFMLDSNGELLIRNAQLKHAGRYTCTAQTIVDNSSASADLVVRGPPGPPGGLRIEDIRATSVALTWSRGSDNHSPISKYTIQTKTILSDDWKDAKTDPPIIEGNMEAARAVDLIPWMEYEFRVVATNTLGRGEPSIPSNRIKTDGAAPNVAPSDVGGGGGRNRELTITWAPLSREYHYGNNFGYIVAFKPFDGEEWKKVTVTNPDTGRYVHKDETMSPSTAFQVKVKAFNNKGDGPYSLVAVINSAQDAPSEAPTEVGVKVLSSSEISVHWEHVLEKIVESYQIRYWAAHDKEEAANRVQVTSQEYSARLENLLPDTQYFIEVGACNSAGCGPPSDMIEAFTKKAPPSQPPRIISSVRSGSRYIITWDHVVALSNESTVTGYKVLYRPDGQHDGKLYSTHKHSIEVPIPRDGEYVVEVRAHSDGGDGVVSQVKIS
In words: cross-linking (DTSSP) on IMR-32 cells, protein A precipitation, SDS-PAGE. The method, then: as §1, §2

B1: βF-Fc (FNIII domain of RPTPβ fused to human IgG1-Fc) (Fc fusion)
chain: not shown
notes: domain: FNIII; also called the FNIII domain alone; fibronectin domain alone; not shown: human IgG1 Fc (vector pCNγ1)
As to B1, the binding result in assay [1] and in assay [2] was “no binding” throughout.
